From article PMC2173304 come the findings set out here.

The target of this assay is peptide corresponding to the cytoplasmic tail of lysosomal acid phosphatase (LAP) (UniProt P11117). Briefly: SPR.
Chain of UniProt P11117 (P11117 402-423): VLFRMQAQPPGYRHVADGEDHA

Turning to “AP2 complex from pig brain, dephosphorylated with calf intestinal alkaline phosphatase”, the fold decrease in affinity against untreated AP2 is > 4 fold.
